# B1: methyltransferase C10Q (enzyme, Streptomyces zelensis NRRL 11183, UniProt A0A1W6EUU7 1-234, looked up)
# chain: MTTEAPLLDLAERVPLDRPHGDIEAVRAYDLGMRRSALMAYKRPTERILAAYREGMTDFVDIGFNTGLLSLHVAGRLPDVAVSGVEEFPHLVDVAEDNLTLGVWANMAGDVEFEQSKLSRLPFPDDSADIVYSFSSLHRWRRPVETLREAARVCKPDGTVLIEDVNRLAEEGHITFILQFVKEGGDQFMRSLKAAYSLDQARDLLREAGLDDWHVVEEDLGLVISNRPVTPVSM
# notes: SAM-dependent methyltransferase C10Q of the CC-1065 biosynthetic gene cluster, Streptomyces zelensis NRRL 11183; cloned from total DNA by 'similar procedures' as the intact c10P gene; source: E. coli Rosetta(DE3) (strain E. coli Ro37-Q), purified (Ni-NTA, desalination column)
# Target: T1, HemN-like radical SAM enzyme Swoo_2002 (Shewanella woodyi ATCC 51908, UniProt B1KQP7 1-448)
# T1 construct: Swoo_2002, HemN-like radical SAM enzyme (counterpart of C10P) from a cryptic biosynthetic gene cluster of Shewanella woodyi ATCC 51908; The enzyme carries one [4Fe-4S] cluster per polypeptide after anaerobic reconstitution; also called C10P surrogate; c10P counterpart; source: E. coli Rosetta(DE3) (strain E. coli RoTB-SW), purified (Ni-NTA, desalination column)
# T1 sequence (looked up): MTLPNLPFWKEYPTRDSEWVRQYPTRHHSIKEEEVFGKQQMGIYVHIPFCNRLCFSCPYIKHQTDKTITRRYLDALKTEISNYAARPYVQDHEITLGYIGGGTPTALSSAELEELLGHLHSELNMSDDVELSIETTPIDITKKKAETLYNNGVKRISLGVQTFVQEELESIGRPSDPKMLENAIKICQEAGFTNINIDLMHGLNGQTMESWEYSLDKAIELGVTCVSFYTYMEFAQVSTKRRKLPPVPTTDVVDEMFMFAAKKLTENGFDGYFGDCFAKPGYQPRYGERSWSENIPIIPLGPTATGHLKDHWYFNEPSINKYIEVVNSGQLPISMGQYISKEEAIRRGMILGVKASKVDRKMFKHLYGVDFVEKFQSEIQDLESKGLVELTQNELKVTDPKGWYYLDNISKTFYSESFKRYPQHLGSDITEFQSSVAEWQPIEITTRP
# Test: ITC; 600 μM C10Q titrated into 200 μL of 60 μM Swoo_2002; PBS buffer pH 7.4 (after desalination, no glycerol, less than 5‰ DMSO); Malvern MicroCal ITC200
# Settings: both partners purified
binder,measurement,value
B1,Kd,8 µM

# — publication PMC6050322, “A radical S-adenosyl-L-methionine enzyme and a methyltransferase catalyze cyclopropane formation in natural product biosynthesis” (Nature Communications, 2018)
